Assay results as given in US20160251386A1 (published 2016).

Target: the molecule itself
Assay: SDS gel and Western blot, self-association (dimer band)

B1: secreted form of the factor with tags (94 AA+tags) expressed in E. coli (other)
chain: MEPLAVVDLRPQSSVKVEVHFQDKVEEMSIRLDQTVAELKKHLKTVVQLSTSNMLLFYLDQEAPFGPEEMKYSSRALHSYGIRDGDKIYVEPRMKDDDDKKGEFEAYVEQKLISEEDLNSAVDHHHHHH
notes: Expressed from pTrcHis2-TOPO in E. coli, purified on nickel columns; carries no lipid cofactor; runs at 16 kD with a 32 kD dimer band; also called free factor made in E. coli; E. coli expressed secreted form of the factor
  binding result: binds
